Legend:
FRTL-5 rat thyroid cells = settings: literature; cited from earlier work
[1] = test system: LMP2, TAP-1, invariant chain (Ii), HLA-DM, B7, CIITA, RFX5, IRF-1, PKR, IFN; test: Northern analysis of genes responsible for antigen presentation in FRTL-5 cells; assay type: cell-based, rat
Protocol: In some experiments, cells were treated with 100 U/ml rat KIFN for the last 48 hours of culture.
Transfection—All procedures used 10 cm dishes and transfection with Lipofectamine Plus (GIBCO BRL, Gaithersburg, Md.). […] Transfections with Lipofectamine (GIBCO BRL, Gaithersburg, Md.), with DEAE dextran, or using electroporation, performed as in Example 1, yielded the same results.
Nucleic Acids—The following polynucleotides were used in these experiments, both made by Pharmacia Biotech, Piscataway, N.J.: poly(dI)/poly(dC) and poly(I)/poly(C). The same results were obtained, however, using sonicated salmon sperm DNA (Stratagene, La Jolla, Calif.), bacterial DNA or calf thymus DNA (Sigma, St. Louis, Mo.), and FRTL-5 cell genomic DNA. […] Viral DNA from Human Herpes Simplex virus and viral DNA oligonucleotides from HIV, HTLV-1, Foamy virus, and cytomegalic virus (CMV) as well as the plasmid vectors pcDNA3 and pRc/RSV, used with or without methylation, also duplicated the results with the ds synthetic polynucleotides.
The probe for rat CIITA is a cloned rat Type III CIITA cDNA fragment in pcDNA3 (K. Suzuki et al., manuscript in preparation). EcoRI is used to release a 4098 bp fragment as the probe.

NF-PB = test: Gel shift analysis with NF-PB consensus ODN, nuclear protein of FRTL-5 cells; assay type: cell-based, rat; settings: nuclear extracts; dsDNA within 3 hours
Protocol: Nuclear Extracts—A previously employed method to prepare nuclear extracts (S. Ikuyama et al., Mol. Endocrinol. 6:1701-1715 (1992)) was modified to prepare extracts from small numbers of cells. Cells were washed, scraped in 1 ml PBS, pelleted in a microfuge, and resuspended in five volumes of Buffer A (10 mM HEPES-KOH, pH 7.9, 10 mM KCl, 1.5 mM MgCl2, 0.1 mM EDTA) containing 0.3 M sucrose and 2% Tween 40. To release nuclei, they were frozen and thawed once, then repetitively pipetted, 50 to 100 times, using a micropipet with a yellow tip (200 T1 capacity). Samples were overlayed on 1 ml of 1.5 M sucrose in Buffer A and microfuged for 10 min at 4EC. Pelleted nuclei were washed with 1 ml Buffer A, centrifuged for 30 sec, then resuspended in 50 T1 of Buffer B (20 mM HEPES-KOH, pH 7.9, 420 mM NaCl, 1.5 mM MgCl2, 0.2 mM EDTA, 25% glycerol). Samples were placed on ice for 20 min with occasional vortexing and centrifuged for 20 min at 4EC. The supernatant fraction containing nuclear protein was aliquoted and stored at −70 C. […]
Electrophoretic Mobility Shift Analysis (EMSA)—Oligonucleotides were labeled with [K-^32P]ATP using T4 polynucleotide kinase, then purified on 8% native polyacrylamide gels (S. Ikuyama et al., Mol. Endocrinol. 6:1701-1715 (1992); H. Shimura, et al., Mol. Endocrinol. 8:1049-69 (1994)). […] Mixtures were analyzed on 5% native polyacrylamide gels and autoradiographed. […]

B1: KIFN: K-interferon (gamma interferon, character lost), rat recombinant, 100 U/ml (protein, UniProt P01581 23-156, looked up)
Interferon gamma: QGTLIESLESLKNYFNSSSMDAMEGKSLLLDIWRNWQKDGNTKILESQIISFYLRLFEVLKDNQAISNNISVIESHLITNFFSNSKAKKDAFMSIAKFEVNNPQIQHKAVNELIRVIHQLSPESSLRKRKRSRC
cell cycle progression (FRTL-5 rat thyroid cells): inhibits progression | expression of genes responsible for antigen presentation ([1]; 5 Tg dsDNA or 100 U/ml KIFN, 3 to 72 hours): induced | induction of CIITA, RFX5 and IRF-1 ([1]; 100 U/ml KIFN): induced | binding of p50/p65 and p50 homodimer to consensus NF-PB oligonucleotide binding site (NF-PB): significantly lesser level
